# Reference: paper PMC4650670 (Scientific Reports, 2015)
# B1: VopV_(rep1) (residues 361-428 of the type III secretion effector VopV) (domain or fragment)
# chain: WPEVKPAHRLITTSGNAKIDGNPGYRNARVDVDGQTVGYTRNERGGSQPQSSGVHTLQGSQQPSVEPS
# Biological target: human cytoskeletal actin, filamentous (F-actin; β- and γ-actins) (human, UniProt P60709 1-375; P63261 1-375)
# Assay: ITC
# Conditions: both partners purified
binder,measurement,value
B1,Kd,54.4 nM
